Laboratory results: US10799462B2, “Peptide-polypeptide co-assembled nanoparticles for drug delivery” (B. G. Negev Technologies and Applications Ltd., at …, priority 2014, dated 2020)

Assays:
[1] = Dynamic light scattering (DLS) particle radius; format: physicochemical; details: for Rh* (most common radius measured at 90° using DLS): γ-PGA alone or peptide/γ-PGA NPs 1:1 w/w, n = 9; for Rh: n = 4
Protocol: (§1) NPs diameter was measured by dynamic light scattering (DLS) (CGS-3 LSE-5003, ALV, Langen, Germany) at different angles of the detector (90, 60 and 30 degrees) and by Small angle X-ray scattering (SAXS) (SAXLAB's GANESHA 300 XL, Skovlunde, Denmark) Sealed Tube Generator: Cu-Ka 0.154 nm (Genix 3D) equipped with a 2D detector (Pilatus 300k). Surface charge was measured by Zetasizer (Zetasizer Nano ZS, Malvern, Worcestershire, UK) and subsequently the data was analyzed using the Smoluchowski model.

[2] = Zeta potential / surface charge by Zetasizer (Smoluchowski model); format: physicochemical; details: for ξ zeta potential: n = 4
Protocol: as §1

[3] = Circular dichroism (CD) secondary structure; format: physicochemical; details: for change of CD pattern on mixing with γ-PGA: peptide:γ-PGA 0.25:0.25 mg/ml
Protocol: CD measurements were performed to characterize secondary structure of peptides in the NPs solution. Spectra in the range of 190-260 nm were recorded at room temperature on CD spectropolarimeter (J-715, Jasco, Tokyo, Japan), using a 1-mm quartz cuvette.

[4] = system: Saos2 cells; test: XTT cell viability (cytotoxicity); format: cell-based; details: Homo sapiens, SAOS-2; Saos2 cultures; results not shown
Protocol: The cytotoxicity of coated nanoparticles was assessed by monitoring the viability of Saos2 cells in presence of the NPs. All cell cultured were carried in air supplemented with 5% CO2 at 37° C. In 24 wells plate, 3*10^4 cells/well were seeded, in DMEM complete medium and cultured for 4 h. The cells were supplemented with different concentrations of LND-NPs, control NPs, or free LND and cultured overnight. Cells viability was determined by XTT assay following the manufacturer instructions (Life Technologies, California, USA). The XTT solution was added to the wells and cells were incubated for 4 hr after which the absorbance of the samples was measured at 490 nm, by a microplate-reader (BioTek instruments, Winoosky, Vt.). Cells viability is reported as percentage compared to untreated cultured cells.

[5] = γ-PGA alone or peptide/γ-PGA NPs 1:1 w/w, n = 9
[6] = γ-PGA/PFK NPs coated with the peptide, coating solution 0.1 mg/ml
[7] = γ-PGA/PFK NPs coated with the peptide, coating solution 0.5 mg/ml
[8] = NPs coated with PFK 0.1 mg/ml, single or repeated addition
[9] = PFK alone or PFK/γ-PGA NPs at different PFK:γ-PGA weight ratios, n = 3

FK(FK)5F (FKFKFKFKFKFKF) [free termini version of the amphiphilic peptide]
Rh* (most common radius measured at 90° using DLS) [1]: 7.41 ± 1.7 nm
ζ zeta potential [2, 5]: −43.71 ± 9.2 mV
change of CD pattern on mixing with γ-PGA [3]: most pronounced shift to β-sheet structure

KFFPKKPFKFFKK [rPFK, scrambled order control of PFK]
Rh* (most common radius measured at 90° using DLS) [1]: 9.57 ± 6 nm
Rh [1, 6]: 11.04 ± 7.77 nm
Rh [1, 7]: 9.72 ± 1.03 nm
ζ zeta potential [2, 5]: −25.26 ± 8.79 mV
ξ zeta potential [2, 6]: −37.26 ± 7.03 mV
ξ zeta potential [2, 7]: −36.0 ± 2.69 mV
change of CD pattern on mixing with γ-PGA [3]: almost no change in its CD pattern

PK(FK)5P (PKFKFKFKFKFKP) [PFK, proline capped amphiphilic cationic 13-residue peptide]
Rh [1, 8]: 9.8 ± 0.23 nm
Radius (Rh, DLS at 90°) [1, 9]: Non spherical NPs
Rh* (most common radius measured at 90° using DLS) [1]: 11.4 ± 2 nm
Rh [1, 6]: 9.8 ± 0.23 nm
Rh [1, 7]: 52.2 ± 50.63 nm
ξ zeta potential [2, 8]: −33.52 ± 3.11 mV
ζ zeta potential [2, 9]: 11.6 ± 5 mV
ζ zeta potential [2, 5]: −49.3 ± 2 mV
ξ zeta potential [2, 6]: −33.52 ± 3.11 mV
ξ zeta potential [2, 7]: −35.42 ± 4.5 mV
θ215/θ203 (β-sheet relative to unfolded) as function of pH ([3]; PFK alone or 1:1 w/w with γ-PGA): steep increase in θ215/θ203 value at pH˜8
change of CD pattern on mixing with γ-PGA [3]: most pronounced shift to β-sheet structure

O=C(O)c1nn(Cc2ccc(Cl)cc2Cl)c2ccccc12 [free LND, Lonidamine]
IC50 [4]: 1300 µM

KFFFKKFFKFFKK [rFK, scrambled order control of FK]
Rh* (most common radius measured at 90° using DLS) [1]: 6.45 ± 1.2 nm
ζ zeta potential [2, 5]: −38.78 ± 3.92 mV
change of CD pattern on mixing with γ-PGA [3]: primarily the Phe-Phe side chain type of absorption
